According to WO2011080050A2 (dated 2011):

T1: natural human CCL21 (secreted and isolated from transfected HEK-293T cells) (human, UniProt O00585 24-134)
T1 sequence: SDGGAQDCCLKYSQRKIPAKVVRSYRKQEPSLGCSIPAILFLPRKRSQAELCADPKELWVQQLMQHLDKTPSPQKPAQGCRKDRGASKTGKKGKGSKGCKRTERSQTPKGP

T2: cynomolgus monkey CCL21 (cynomolgus monkey, UniProt Q8HYP5 24-131 (rhesus entry))
T2 sequence: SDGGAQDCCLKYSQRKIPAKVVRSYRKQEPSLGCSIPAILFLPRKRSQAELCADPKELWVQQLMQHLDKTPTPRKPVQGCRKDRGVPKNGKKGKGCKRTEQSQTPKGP

T3: human CCL21 (human, UniProt O00585 24-134)
T3 sequence: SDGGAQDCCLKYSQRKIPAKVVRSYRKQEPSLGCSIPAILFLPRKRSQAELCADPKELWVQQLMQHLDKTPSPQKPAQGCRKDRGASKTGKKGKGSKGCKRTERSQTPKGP


Key:
[1] = target: T1, natural human CCL21 (secreted and …); assay: cell-based or functional assay
cynomolgus monkey CCL21 [2] = target: T2, cynomolgus monkey CCL21; assay: cell-based or functional assay
human CCL21 [3] = target: T3, human CCL21; assay: cell-based or functional assay
cynomolgus monkey CCL21 [4] = target: T2, cynomolgus monkey CCL21; assay: SPR (Biacore T100), antibody captured on protein A, CCL21 as analyte, 1:1 model, two experiments
[5] = target: CCL21 of the four chemotaxis assays (recombinant human, recombinant cynomolgus monkey, natural human); assay: cell-based or functional assay
human CCL21 [6] = target: T3, human CCL21; assay: SPR (Biacore T100), antibody captured on protein A, CCL21 as analyte, 1:1 model, three experiments

| Binder | % inhibition of migration, natural hCCL21, H9 cells, 1:1 molar ratio (4th cell) [1] [%] | % inhibition of migration, natural hCCL21, H9 cells, IgG at 2uM (4th cell) [1] [%] | IC50, inhibition of natural hCCL21-mediated migration of H9 cells [1] [nM] | % inhibition of migration, recombinant cCCL21, H9 cells, 1:1 molar ratio (3rd cell) (cynomolgus monkey CCL21 [2]) [%] | % inhibition of migration, recombinant cCCL21, H9 cells, IgG at 2uM (3rd cell) (cynomolgus monkey CCL21 [2]) [%] | % inhibition of migration, recombinant hCCL21, H9 cells, 1:1 molar ratio (1st cell) (human CCL21 [3]) [%] | % inhibition of migration, recombinant hCCL21, H9 cells, IgG at 2uM (1st cell) (human CCL21 [3]) [%] | % inhibition of migration, recombinant hCCL21, primary human T cells, 1:1 molar ratio (2nd cell) (human CCL21 [3]) [%] | % inhibition of migration, recombinant hCCL21, primary human T cells, IgG at 2uM (2nd cell) (human CCL21 [3]) [%] | IC50, inhibition of recombinant hCCL21-mediated migration of H9 cells (human CCL21 [3]) [nM] | IC50, inhibition of CCL21-mediated calcium mobilization, cynomolgus monkey CCL21 on CHO-K1 cells with cynomolgus monkey CCR7 (cynomolgus monkey CCL21 [2]) [nM] | IC50, inhibition of CCL21-mediated calcium mobilization, cynomolgus monkey CCL21 on CHO-K1 cells with human CCR7 (cynomolgus monkey CCL21 [2]) [nM] | IC50, inhibition of CCL21-mediated calcium mobilization, human CCL21 on CHO-K1 cells with cynomolgus monkey CCR7 (human CCL21 [3]) [nM] | IC50, inhibition of CCL21-mediated calcium mobilization, human CCL21 on CHO-K1 cells with human CCR7 (human CCL21 [3]) [nM] | Kd (cynomolgus monkey CCL21 [4]) [nM] | kon (cynomolgus monkey CCL21 [4]) [M⁻¹ s⁻¹] | % inhibition of CCL21 mediated chemotaxis at 1:1 molar ratio, large scale batch, four assays [5] [%] | IC50, inhibition of CCL21 mediated chemotaxis, large scale batch, four assays [5] [nM] | Kd (human CCL21 [6]) [nM] | kon (human CCL21 [6]) [M⁻¹ s⁻¹] |
| --- | --- | --- | --- | --- | --- | --- | --- | --- | --- | --- | --- | --- | --- | --- | --- | --- | --- | --- | --- | --- |
| MOR08382_g3-23_gL6 (antibody, human IgG1, kappa, V domains shown) VH: EVQLLESGGGLVQPGGSLRLSCAASGFTFSSYWLNWVRQAPGKGLEWVSYISNQGDDTSYADSVKGRFTISRDNSKNTLYLQMNSLRAEDTAVYYCARDYQYIGDSFDIWGQGTLVTVSS VL: EIVLTQSPATLSLSPGERATLSCRASQYVSYVSLAWYQQKPGQAPRLLIYDASNRATGIPARFSGSGSGTDFTLTISSLEPEDFAVYYCQQYDDLSYTFGQGTKVEIKR | 70 | 100 | 66 | 100 | 100 | 97 | 97 | 100 | 100 | 23.7 |  |  |  |  |  |  |  |  |  |  |
| MOR08378_g5-51_g2a2 (antibody, human IgG1, lambda, V domains shown) VH: EVQLVQSGAEVKKPGESLKISCKGSGYSFNNYWISWVRQMPGKGLEWMGIIDPTNSQTTYSPSFQGQVTISADKSISTAYLQWSSLKASDTAMYYCARDGYPIFDYWGQGTLVTVSS VL: QSALTQPASVSGSPGQSITISCTGTSSDLGGYNYVSWYQQHPGKAPKLMIYDVNYRPSGVSNRFSGSKSGNTASLTISGLQAEDEADYYCSSYTYYSNSGVFGGGTKLTVLG | 64 | 100 | 69 | 100 | 100 | 87 | 100 | 100 | 100 | 49.7 |  |  |  |  |  |  |  |  |  |  |
| MOR06935_g3-23_g3j (antibody, V domains shown, also called QBP359; FW repaired germlined MOR06935) VH: EVQLLESGGGLVQPGGSLRLSCAASGFTFNSYSMSWVRQAPGKGLEWVSAISMEGYSKSYADSVKGRFTISRDNSKNTLYLQMNSLRAEDTAVYYCARGYGYYFDVWGQGTLVTVSS VL: SYELTQPLSVSVALGQTARITCGGDSIGSQYASWYQQKPGQAPVLVIYDDNERPSGIPERFSGSNSGNTATLTISRAQAGDEADYYCGSWDSNPTHVFGGGTKLTVLG | 77 | 100 |  | 96 | 100 | 61 | 100 | 86 | 100 |  | 62 | 211 | 252 | 341 | 0.026 | 9.1e+07 | 81 to 100 | 11 to 45 | 0.03 | 6.8e+07 |
| MOR08389_g3-23_g3j (antibody, human IgG1, lambda, V domains shown) VH: EVQLLESGGGLVQPGGSLRLSCAASGFTFNSYSMSWVRQAPGKGLEWVSAISMEGYSKSYADSVKGRFTISRDNSKNTLYLQMNSLRAEDTAVYYCARGYGYYFDVWGQGTLVTVSS VL: SYELTQPLSVSVALGQTARITCGGDSIGSQYASWYQQKPGQAPVLVIYDDNERPSGIPERFSGSNSGNTATLTISRAQAGDEADYYCSSWDMDAVNVFGGGTKLTVLG | 82 | 100 | 34 | 100 | 100 | 94 | 94 | 100 | 100 | 54.1 |  |  |  |  |  |  |  |  |  |  |
